Data taken from patent US20220048967A1 (published 2022).
Numbered stars: 1 amine (or outer) side, 2 acyl side, 3 side chain; on linkers, the order of the positions; unused ones are H or OH. Square brackets hold non-standard residues; d marks the D form. Side chains are listed from the residue outwards. Ends that are not written are not given here. * marks the point of attachment. C20 diacid = O=C(O)CCCCCCCCCCCCCCCCCCC(=O)*; γGlu = O=C(O)[C@H](CCC(=O)[*:2])N[*:1]; AEEA = NCCOCCOCC(=O)O; Aib = CC(C)(N)C(=O)O

B1: Example 35 (peptide)
peptide: Y[Aib]EGTFTSDYSILLDKIAQ[Aib]AFIEYK([AEEA-AEEA-γGlu-C20 diacid])IEGGPSSGAPPPS-NH2
modifications: N-terminus assumed
SMILES: CC[C@H](C)[C@H](NC(=O)[C@H](CCCCN)NC(=O)[C@H](CC(=O)O)NC(=O)[C@H](CC(C)C)NC(=O)[C@H](CC(C)C)NC(=O)[C@@H](NC(=O)[C@H](CO)NC(=O)[C@H](Cc1ccc(O)cc1)NC(=O)[C@H](CC(=O)O)NC(=O)[C@H](CO)NC(=O)[C@@H](NC(=O)[C@H](Cc1ccccc1)NC(=O)[C@@H](NC(=O)CNC(=O)[C@H](CCC(=O)O)NC(=O)C(C)(C)NC(=O)[C@@H](N)Cc1ccc(O)cc1)[C@@H](C)O)[C@@H](C)O)[C@@H](C)CC)C(=O)N[C@@H](C)C(=O)N[C@@H](CCC(N)=O)C(=O)NC(C)(C)C(=O)N[C@@H](C)C(=O)N[C@@H](Cc1ccccc1)C(=O)N[C@H](C(=O)N[C@@H](CCC(=O)O)C(=O)N[C@@H](Cc1ccc(O)cc1)C(=O)N[C@@H](CCCCNC(=O)COCCOCCNC(=O)COCCOCCNC(=O)CC[C@H](NC(=O)CCCCCCCCCCCCCCCCCCC(=O)O)C(=O)O)C(=O)N[C@H](C(=O)N[C@@H](CCC(=O)O)C(=O)NCC(=O)NCC(=O)N1CCC[C@H]1C(=O)N[C@@H](CO)C(=O)N[C@@H](CO)C(=O)NCC(=O)N[C@@H](C)C(=O)N1CCC[C@H]1C(=O)N1CCC[C@H]1C(=O)N1CCC[C@H]1C(=O)N[C@@H](CO)C(N)=O)[C@@H](C)CC)[C@@H](C)CC
B2: Example 37 (peptide)
peptide: Y[Aib]EGTFTSDYSILLDKIAQ[Aib]AFIEYLIK([AEEA-AEEA-γGlu-C20 diacid])GGPSSGAPPPS-NH2
modifications: N-terminus assumed
SMILES: CC[C@H](C)[C@H](NC(=O)[C@H](CCCCN)NC(=O)[C@H](CC(=O)O)NC(=O)[C@H](CC(C)C)NC(=O)[C@H](CC(C)C)NC(=O)[C@@H](NC(=O)[C@H](CO)NC(=O)[C@H](Cc1ccc(O)cc1)NC(=O)[C@H](CC(=O)O)NC(=O)[C@H](CO)NC(=O)[C@@H](NC(=O)[C@H](Cc1ccccc1)NC(=O)[C@@H](NC(=O)CNC(=O)[C@H](CCC(=O)O)NC(=O)C(C)(C)NC(=O)[C@@H](N)Cc1ccc(O)cc1)[C@@H](C)O)[C@@H](C)O)[C@@H](C)CC)C(=O)N[C@@H](C)C(=O)N[C@@H](CCC(N)=O)C(=O)NC(C)(C)C(=O)N[C@@H](C)C(=O)N[C@@H](Cc1ccccc1)C(=O)N[C@H](C(=O)N[C@@H](CCC(=O)O)C(=O)N[C@@H](Cc1ccc(O)cc1)C(=O)N[C@@H](CC(C)C)C(=O)N[C@H](C(=O)N[C@@H](CCCCNC(=O)COCCOCCNC(=O)COCCOCCNC(=O)CC[C@H](NC(=O)CCCCCCCCCCCCCCCCCCC(=O)O)C(=O)O)C(=O)NCC(=O)NCC(=O)N1CCC[C@H]1C(=O)N[C@@H](CO)C(=O)N[C@@H](CO)C(=O)NCC(=O)N[C@@H](C)C(=O)N1CCC[C@H]1C(=O)N1CCC[C@H]1C(=O)N1CCC[C@H]1C(=O)N[C@@H](CO)C(N)=O)[C@@H](C)CC)[C@@H](C)CC
B3: Example 36 (peptide)
peptide: Y[Aib]EGTFTSDYSILLDKIAQ[Aib]AFIEYLK([AEEA-AEEA-γGlu-C20 diacid])EGGPSSGAPPPS-NH2
modifications: N-terminus assumed
SMILES: CC[C@H](C)[C@H](NC(=O)[C@H](CCCCN)NC(=O)[C@H](CC(=O)O)NC(=O)[C@H](CC(C)C)NC(=O)[C@H](CC(C)C)NC(=O)[C@@H](NC(=O)[C@H](CO)NC(=O)[C@H](Cc1ccc(O)cc1)NC(=O)[C@H](CC(=O)O)NC(=O)[C@H](CO)NC(=O)[C@@H](NC(=O)[C@H](Cc1ccccc1)NC(=O)[C@@H](NC(=O)CNC(=O)[C@H](CCC(=O)O)NC(=O)C(C)(C)NC(=O)[C@@H](N)Cc1ccc(O)cc1)[C@@H](C)O)[C@@H](C)O)[C@@H](C)CC)C(=O)N[C@@H](C)C(=O)N[C@@H](CCC(N)=O)C(=O)NC(C)(C)C(=O)N[C@@H](C)C(=O)N[C@@H](Cc1ccccc1)C(=O)N[C@H](C(=O)N[C@@H](CCC(=O)O)C(=O)N[C@@H](Cc1ccc(O)cc1)C(=O)N[C@@H](CC(C)C)C(=O)N[C@@H](CCCCNC(=O)COCCOCCNC(=O)COCCOCCNC(=O)CC[C@H](NC(=O)CCCCCCCCCCCCCCCCCCC(=O)O)C(=O)O)C(=O)N[C@@H](CCC(=O)O)C(=O)NCC(=O)NCC(=O)N1CCC[C@H]1C(=O)N[C@@H](CO)C(=O)N[C@@H](CO)C(=O)NCC(=O)N[C@@H](C)C(=O)N1CCC[C@H]1C(=O)N1CCC[C@H]1C(=O)N1CCC[C@H]1C(=O)N[C@@H](CO)C(N)=O)[C@@H](C)CC
B4: Example 38 (peptide)
peptide: Y[Aib]EGTFTSDYSILLDKIAQ[Aib]AFIEYLIEK([AEEA-AEEA-γGlu-C20 diacid])GPSSGAPPPS-NH2
modifications: N-terminus assumed
SMILES: CC[C@H](C)[C@H](NC(=O)[C@H](CCCCN)NC(=O)[C@H](CC(=O)O)NC(=O)[C@H](CC(C)C)NC(=O)[C@H](CC(C)C)NC(=O)[C@@H](NC(=O)[C@H](CO)NC(=O)[C@H](Cc1ccc(O)cc1)NC(=O)[C@H](CC(=O)O)NC(=O)[C@H](CO)NC(=O)[C@@H](NC(=O)[C@H](Cc1ccccc1)NC(=O)[C@@H](NC(=O)CNC(=O)[C@H](CCC(=O)O)NC(=O)C(C)(C)NC(=O)[C@@H](N)Cc1ccc(O)cc1)[C@@H](C)O)[C@@H](C)O)[C@@H](C)CC)C(=O)N[C@@H](C)C(=O)N[C@@H](CCC(N)=O)C(=O)NC(C)(C)C(=O)N[C@@H](C)C(=O)N[C@@H](Cc1ccccc1)C(=O)N[C@H](C(=O)N[C@@H](CCC(=O)O)C(=O)N[C@@H](Cc1ccc(O)cc1)C(=O)N[C@@H](CC(C)C)C(=O)N[C@H](C(=O)N[C@@H](CCC(=O)O)C(=O)N[C@@H](CCCCNC(=O)COCCOCCNC(=O)COCCOCCNC(=O)CC[C@H](NC(=O)CCCCCCCCCCCCCCCCCCC(=O)O)C(=O)O)C(=O)NCC(=O)N1CCC[C@H]1C(=O)N[C@@H](CO)C(=O)N[C@@H](CO)C(=O)NCC(=O)N[C@@H](C)C(=O)N1CCC[C@H]1C(=O)N1CCC[C@H]1C(=O)N1CCC[C@H]1C(=O)N[C@@H](CO)C(N)=O)[C@@H](C)CC)[C@@H](C)CC

Molecular target: human GLP-1 receptor (human, UniProt P43220 24-463)
Assay: cell-based or functional assay

Binder	hGLP1R cAMP EC50 ratio	hGLP1R cAMP Rel EC50
B1	0.00728	8380 pM
B2	0.0533	1150 pM
B3	0.0268	2290 pM
B4	0.0217	2820 pM

Molecular target: T1, human GIP receptor (human, UniProt P48546 22-466)
T1 sequence (looked up): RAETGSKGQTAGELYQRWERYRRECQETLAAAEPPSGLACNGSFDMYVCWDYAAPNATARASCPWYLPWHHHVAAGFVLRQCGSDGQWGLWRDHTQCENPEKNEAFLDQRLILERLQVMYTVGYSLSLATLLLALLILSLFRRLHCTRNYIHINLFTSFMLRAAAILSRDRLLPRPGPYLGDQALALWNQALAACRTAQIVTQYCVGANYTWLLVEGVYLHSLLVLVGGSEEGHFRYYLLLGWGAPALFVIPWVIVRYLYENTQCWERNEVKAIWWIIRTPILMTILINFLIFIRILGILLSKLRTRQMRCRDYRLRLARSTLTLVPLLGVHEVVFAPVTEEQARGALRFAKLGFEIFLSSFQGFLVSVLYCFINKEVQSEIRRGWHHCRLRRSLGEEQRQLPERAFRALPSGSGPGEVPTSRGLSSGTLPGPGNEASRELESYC
Assay: cell-based or functional assay

Binder	hGIPR cAMP EC50 ratio	hGIPR cAMP Rel EC50
B1	1.58	90.5 pM
B2	0.532	269 pM
B3	0.458	309 pM
B4	0.967	147 pM
